These are literature values, as cited in publication PMC9736027.

pKd: −log10 of the molar value.

As a reminder, the pKd is −log10 of the Kd, conventionally taken in molar units.

This data set addresses Nrf2 (Homo sapiens) (UniProt Q16236).
UniProt Q16236, sequence (Q16236 whole entry): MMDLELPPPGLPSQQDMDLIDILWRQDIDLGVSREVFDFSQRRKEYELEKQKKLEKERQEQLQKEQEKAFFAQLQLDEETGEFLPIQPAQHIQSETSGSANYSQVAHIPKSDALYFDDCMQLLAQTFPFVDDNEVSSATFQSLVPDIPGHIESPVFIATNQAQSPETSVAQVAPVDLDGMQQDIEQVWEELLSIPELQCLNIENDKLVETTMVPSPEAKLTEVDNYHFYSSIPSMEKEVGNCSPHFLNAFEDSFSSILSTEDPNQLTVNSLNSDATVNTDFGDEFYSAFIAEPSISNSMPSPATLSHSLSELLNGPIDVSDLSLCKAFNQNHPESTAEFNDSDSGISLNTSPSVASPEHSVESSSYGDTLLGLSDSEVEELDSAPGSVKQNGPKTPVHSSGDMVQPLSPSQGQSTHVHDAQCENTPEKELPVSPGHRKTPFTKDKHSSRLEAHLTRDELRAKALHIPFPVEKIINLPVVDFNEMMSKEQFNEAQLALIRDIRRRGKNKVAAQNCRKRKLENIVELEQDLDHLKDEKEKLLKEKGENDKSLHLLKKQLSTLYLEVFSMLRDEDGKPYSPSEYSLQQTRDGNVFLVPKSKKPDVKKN

As to Keap1 (from UniProt Q14145), the pKd was 7.70.
